Assay [1] concerns the target recombinant biotinylated PD1/CD279 protein (AcroBiosystems PD1-H82E4) (UniProt Q15116 25-167, biotinylated). Description: ELISA; antibody coated on plate, biotinylated antigen titrated, streptavidin-HRP. On the procedure: The interaction of the unmodified and of conjugated antibodies their antigens were measured by ELISA assay.
For these PD-1 ELISAs, Corning high-binding half-area plates (Fisher Scientific, Reinach, Switzerland) were coated overnight at 4° C. with 25 μl of unmodified and of conjugated anti-PD1 antibodies at 5 μg/ml in PBS. Plates were then washed four times with 100 μl of PBS-0.02% Tween20. Plates surfaces were blocked with 25 μl of PBS-0.02% Tween20-1% BSA at 37° C. during 1 h. Plates were then washed four times with 100 μl of PBS-0.02% Tween20. […] Fifty microliters of TMB substrate reagent (#CL07, Merck, Buchs, Switzerland) were added to each well and incubated at 37° C. during 5 min. After 5 min at 37° C., Horseradish peroxidase reaction was stopped by adding 50 μl/well of 0.5M H₂SO₄ stop solution. ELISA signal was then measured at 450 nm on an EnSpire plate reader from Perkin Elmer (Schwerzenbach, Switzerland). ELISAs for other antibody/antigen pairs were performed using analogous methods.
A general note: An ELISA detects its analyte on a solid surface through an enzyme-linked reagent.

In assay [2] the target is T1, recombinant biotinylated human Fc gamma receptor I (FcγRI/CD64) (human, UniProt P12314 16-288, limits assumed, biotinylated).
T1 construct: also called FcgRI
As to the kind of experiment: AlphaLISA competition: test antibody titrated against biotinylated human FcγRI; competitor: human IgG Fc on acceptor beads; signal normalized to %; panel 'FcγR1/CD64 Binding Assay'. As for the experimental part: (§1) The interaction of the unmodified and of conjugated antibodies with human Fc gamma receptors I (FcγRI/CD64), with human Fc gamma receptors II (FcγRIIa/CD32), and with low affinity human Fc gamma receptors III FcγR3a/CD16 V158 were measured using the AlphaLISA® Human FcγR1/CD64 (AL3081C), FcγRIIa/CD32a 167H (AL3086C), and FcγRIII/CD16 176P/F158 (AL3471HV) binding Kits respectively (Perkin Elmer, Schwerzenbach, Switzerland).
(§2) After 90 min at 23° C. in the dark, AlphaLISA® signal was measured on an EnSpire plate reader (Excitation at 680 nm, Emission at 615 nm) from Perkin Elmer (Schwerzenbach, Switzerland).
(Alpha assays give light when donor and acceptor beads are brought close together.)

In assay [3] the target is T2, recombinant biotinylated human Fc gamma receptor IIa (FcγRIIa/CD32a 167H) (human, UniProt P12318 36-218, limits assumed, biotinylated).
T2 construct: also called FcgRIIa
T2 sequence (looked up): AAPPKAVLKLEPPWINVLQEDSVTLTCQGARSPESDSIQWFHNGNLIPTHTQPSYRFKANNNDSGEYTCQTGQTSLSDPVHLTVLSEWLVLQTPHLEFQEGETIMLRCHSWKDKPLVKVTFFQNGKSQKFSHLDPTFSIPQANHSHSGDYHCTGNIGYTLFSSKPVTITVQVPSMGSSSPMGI
As to the kind of experiment: AlphaLISA competition: test antibody titrated against biotinylated human FcγRIIa; competitor: human IgG Fc on acceptor beads; signal normalized to %; panel 'FcγR2a/CD32a Binding Assay'. On the procedure: as §1, §2

In assay [4] the target is T3, recombinant biotinylated human Fc gamma receptor IIIa (FcγRIIIa/CD16) (human, UniProt P08637 17-208, limits assumed, biotinylated).
T3 construct: Allotype given inconsistently (V158 against 176P/F158); also called FcgRIIIa; FcγR3a
As to the kind of experiment: AlphaLISA competition: test antibody titrated against biotinylated human FcγRIIIa; competitor: human IgG Fc on acceptor beads; signal normalized to %; panel 'FcγR3a/CD16 Binding Assay'. As for the experimental part:
as §1, §2

Assay [5] addresses T4, recombinant biotinylated human neonatal Fc receptor (FcRn) (human, UniProt P55899 24-297; P61769 21-119, limits assumed, biotinylated).
T4 construct: also called human FcRn
Description: AlphaLISA competition at pH 6; test molecule titrated against human IgG acceptor beads for biotinylated human FcRn. On the procedure: (§3) The interaction of the unmodified and of conjugated anti-PD1 antibodies with the human neonatal Fc receptor (FcRn) at pH 6 was measured using the AlphaLISA Human FcRn Binding Kit (AL3095C) from Perkin Elmer (Schwerzenbach, Switzerland).
(§4) After 90 min at 23° C. in the dark, AlphaLISA signal was measured on an EnSpire plate reader (Excitation at 680 nm, Emission at 615 nm) from Perkin Elmer (Schwerzenbach, Switzerland).

Assay [6] concerns the target T3, recombinant biotinylated human Fc gamma …. Description: AlphaLISA competition; test molecule titrated against human IgG Fc acceptor beads for biotinylated FcγRIIIa. As for the experimental part:
as §1, §2

The target in assay [7] is T1, recombinant biotinylated human Fc gamma …. As to the kind of experiment: AlphaLISA competition; test molecule titrated against human IgG Fc acceptor beads for biotinylated FcγRI. As for the experimental part:
as §1, §2

A further assay concerns the target T5, CD20 (human, UniProt P11836 1-297, limits assumed).
T5 construct: The CD20 reagent of the ELISA is not described (analogous methods); also called human CD20
T5 sequence: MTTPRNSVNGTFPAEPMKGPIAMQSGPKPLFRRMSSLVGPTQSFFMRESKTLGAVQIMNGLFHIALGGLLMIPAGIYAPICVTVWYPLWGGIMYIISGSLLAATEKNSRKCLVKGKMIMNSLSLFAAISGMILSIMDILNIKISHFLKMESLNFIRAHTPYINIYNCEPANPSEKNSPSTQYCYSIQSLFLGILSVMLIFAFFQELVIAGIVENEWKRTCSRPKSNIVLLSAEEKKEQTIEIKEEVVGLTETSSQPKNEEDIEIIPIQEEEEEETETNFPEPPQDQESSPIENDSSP
As to the kind of experiment: ELISA by a method analogous to the PD-1 ELISA; antigen reagent not described.

The target of assay [8] is T6, Fc gamma receptor IIb (FcgRIIb, CD32b) (human, UniProt P31994 46-217, limits assumed).
T6 construct: the kit is not described; also called FcRIIb
T6 sequence (looked up): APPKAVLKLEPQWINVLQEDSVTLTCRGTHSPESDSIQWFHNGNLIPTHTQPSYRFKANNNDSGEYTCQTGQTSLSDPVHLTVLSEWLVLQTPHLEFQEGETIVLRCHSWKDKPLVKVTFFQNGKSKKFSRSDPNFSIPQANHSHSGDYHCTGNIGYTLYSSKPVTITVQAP
Description: AlphaLISA competition or analogous assay for FcγRIIb (not described).

Assay [9] concerns the target T2, recombinant biotinylated human Fc gamma …. As to the kind of experiment: AlphaLISA competition; test molecule titrated against human IgG Fc acceptor beads for biotinylated FcγRIIa. On the procedure: as §1, §2
For assay [10], the target named is T1, recombinant biotinylated human Fc gamma …. As to the kind of experiment: AlphaLISA competition: test antibody titrated against biotinylated human FcγRI on donor beads; competitor: human IgG Fc on acceptor beads; signal normalized to %. On the procedure:
as §1, §2

The target of assay [11] is T4, recombinant biotinylated human neonatal …. As to the kind of experiment: AlphaLISA competition at pH 6: test antibody titrated against biotinylated human FcRn on donor beads; competitor: human IgG on acceptor beads. As for the experimental part:
as §3, §4

B1: CMP-105 (LZM-009) (antibody, V domains shown)
VH: QVQLVQSGAEVKKPGASVKVSCKASGYTFTSYYMYWVRQAPGQGLEWMGGVNPSNGGTNFNEKFKSRVTITADKSTSTAYMELSSLRSEDTAVYYCARRDYRYDMGFDYWGQGTTVTVSS
VL: EIVLTQSPATLSLSPGERATISCRASKGVSTSGYSYLHWYQQKPGQAPRLLIYLASYLESGVPARFSGSGSGTDFTLTISSLEPEDFATYYCQHSRELPLTFGTGTKVEIK
notes: Unconjugated parent anti-PD-1 antibody (DAR 0); also called Livzon PD1 AB
For B1, the Kd (usually the concentration at which binding is half-saturated) in [1] came out at 0.035 nM.

B2: CMP-028 (LZM-009 conjugated to CMP-003, DAR 1.9, K288) (antibody)
VH: B1 VH
VL: B1 VL
chain: APTSSSTKKTQLQLEHLLLDLQXILNGINNYKNPKLTRXLXYKFYXPKKATELKHLQCLEEELKPLEEVLXLAQSKNFHLRPRDLISNINVIVLELKGSETTFXCEYADETATIVEFLNRWITFSQSIISTLT
modifications: not fully specified; Nle at 23, 39, 46 and Hse at 41, 71, 104 (as in SEQ ID NO: 3); ~0.5 kDa PEG on Y45; 0.5 kDa PEG on F42Y whose azide end is joined to the DBCO linker of the antibody; the heavy chain carries a chemical linker to CMP-003 on Lys K288 (Eu numbering) of the Fc; DAR 1.9
In the case of B2, the equilibrium dissociation constant (Kd) in assay [1] is 0.041 nM.

B3: CMP-016 (LZM-009 conjugated to CMP-003, DAR 1, K248) (antibody)
VH: B1 VH
VL: B1 VL
chain: B2 chain
modifications: not fully specified; Nle at 23, 39, 46 and Hse at 41, 71, 104 (as in SEQ ID NO: 3); ~0.5 kDa PEG on Y45; 0.5 kDa PEG on F42Y whose azide end is joined to the DBCO linker of the antibody; the heavy chain carries a chemical linker to CMP-003 on Lys K248 (Eu numbering) of the Fc; DAR 1
Turning to B3, the Kd in [1] is 0.037 nM.

B4: CMP-041 (LZM-009 conjugated to CMP-095 (IL-7), DAR 1, K248) (antibody)
VH: B1 VH
VL: B1 VL
chain: DCDIEGKDGKQYESVLXVSIDQLLDSXKEIGSNCLXNEFNFFKRHICDANKEGXFLFRAARKLRQFLKXNSTGDFXLHLLKVSEGTTILLNCTGQVKGRKPAALGEAQPTKSLXENKSLKEQKKLNDLCFLKRLLQEIKTCWNKILXGTKEH
modifications: not fully specified; Nle at 17, 27, 54, 69, 147 and Hse at 36, 76, 114 (as in SEQ ID NO: 187); N-terminal amine carries glutaryl-PEG9 whose azide end is joined to the DBCO linker of the antibody; the heavy chain carries a chemical linker to CMP-095 on Lys K248 (Eu numbering) of the Fc; DAR 1
notes: also called Livzon PD1:IL7wt
With B4, the Kd in assay [1] was 0.035 nM.

B5: CMP-102 (LZM-009 conjugated to CMP-003, DAR 1, K288) (antibody)
VH: B1 VH
VL: B1 VL
chain: B2 chain
modifications: not fully specified; Nle at 23, 39, 46 and Hse at 41, 71, 104 (as in SEQ ID NO: 3); ~0.5 kDa PEG on Y45; 0.5 kDa PEG on F42Y whose azide end is joined to the DBCO linker of the antibody; the heavy chain carries a chemical linker to CMP-003 on Lys K288 (Eu numbering) of the Fc; DAR 1
In the case of B5, the Kd in assay [1] was 0.027 nM.

B6: CMP-033 (Durvalumab) (antibody, human IgG1, kappa)
heavy chain: EVQLVESGGGLVQPGGSLRLSCAASGFTFSRYWMSWVRQAPGKGLEWVANIKQDGSEKYYVDSVKGRFTISRDNAKNSLYLQMNSLRAEDTAVYYCAREGGWFGELAFDYWGQGTLVTVSSASTKGPSVFPLAPSSKSTSGGTAALGCLVKDYFPEPVTVSWNSGALTSGVHTFPAVLQSSGLYSLSSVVTVPSSSLGTQTYICNVNHKPSNTKVDKRVEPKSCDKTHTCPPCPAPEFEGGPSVFLFPPKPKDTLMISRTPEVTCVVVDVSHEDPEVKFNWYVDGVEVHNAKTKPREEQYNSTYRVVSVLTVLHQDWLNGKEYKCKVSNKALPASIEKTISKAKGQPREPQVYTLPPSREEMTKNQVSLTCLVKGFYPSDIAVEWESNGQPENNYKTTPPVLDSDGSFFLYSKLTVDKSRWQQGNVFSCSVMHEALHNHYTQKSLSLSPGK
light chain: EIVLTQSPGTLSLSPGERATLSCRASQRVSSSYLAWYQQKPGQAPRLLIYDASSRATGIPDRFSGSGSGTDFTLTISRLEPEDFAVYYCQQYGSLPWTFGQGTKVEIKRTVAAPSVFIFPPSDEQLKSGTASVVCLLNNFYPREAKVQWKVDNALQSGNSQESVTEQDSKDSTYSLSSTLTLSKADYEKHKVYACEVTHQGLSSPVTKSFNRGEC
notes: unconjugated parent anti-PD-L1 antibody; also called Imfinzi; MEDI-4736
Take B6: the binding result in assay [2] is recorded as “binds”. Moreover, the “IC50 (read off the curve)” value in assay [3] is about 400 nM; in assay [4], about 500 nM.

B7: CMP-032 (biosimilar Rituximab) (antibody, human IgG1, kappa)
heavy: not shown
light: QIVLSQSPAILSASPGEKVTMTCRASSSVSYIHWFQQKPGSSPKPWIYATSNLASGVPVRFSGSGSGTSYSLTISRVEAEDAATYYCQQWTSNPPTFGGGTKLEIKRTVAAPSVFIFPPSDEQLKSGTASVVCLLNNFYPREAKVQWKVDNALQSGNSQESVTEQDSKDSTYSLSSTLTLSKADYEKHKVYACEVTHQGLSSPVTKSFNRGEC
notes: Unconjugated parent anti-CD20 antibody (DAR 0); A biosimilar/generic rituximab was tested; also called generic rituximab
As for B7, the Kd in [5] came to 4.03 nM; in assay [6] it was 133 nM; in assay [7] it was 0.233 nM; with CD20, 0.076 nM; in assay [8], 880 nM; in [9], 740 nM.

B8: CMP-004 (Pembrolizumab) (antibody, human IgG4 S228P, kappa)
heavy: not shown
light: EIVLTQSPATLSLSPGERATLSCRASKGVSTSGYSYLHWYQQKPGQAPRLLIYLASYLESGVPARFSGSGSGTDFTLTISSLEPEDFAVYYCQHSRDLPLTFGGGTKVEIKRTVAAPSVFIFPPSDEQLKSGTASVVCLLNNFYPREAKVQWKVDNALQSGNSQESVTEQDSKDSTYSLSSTLTLSKADYEKHKVYACEVTHQGLSSPVTKSFNRGEC
notes: Unconjugated parent anti-PD-1 antibody (DAR 0); also called Lambrolizumab
On to B8, for which the Kd was found to be 7.31 nM in assay [5], 289 nM in [6] and 0.488 nM in assay [7]. The results for the “IC50 (read off the curve)” value in assay [10] and in assay [11] were about 0.5 nM and about 10 nM, respectively.

(Values after US20230201364A1 (BRIGHT PEAK THERAPEUTICS, published 2023).)
